US20130216513A1 (Biogen, published 2013)

Biological target: T1, GPIIbIIIa on activated human platelets (human, UniProt P08514 32-1039; P05106 27-788)
T1 construct: whole, on cells; also called active form of GPIIbIIIa
Assay: FACS on activated human platelets, FITC-labeled FVII antibody; reference FVIIaFc (FVII-011); FIG. 44C

B1: FVII-094 (other)
chain 1: ANAFLEELRPGSLERECKEEQCSFEEAREIFKDAERTKLFWISYSDGDQCASSPCQNGGSCKDQLQSYICFCLPAFEGRNCETHKDDQLICVNENGGCEQYCSDHTGTKRSCRCHEGYSLLADGVSCTPTVEYPCGKIPILEKRNASKPQGR
chain 2: IVGGKVCPKGECPWQVLLLVNGAQLCGGTLINTIWVVSAAHCFDKIKNWRNLIAVLGEHDLSEHDGDEQSRRVAQVIIPSTYVPGTTNHDIALLRLHQPVVLTDHVVPLCLPERTFSERTLAFVRFSLVSGWGQLLDRGATALELMVLNVPRLMTQDCLQQSRKVGDSPNITEYMFCAGYSDGSKDSCKGDSGGPHATHYRGTWYLTGIVSWGQGCATVGHFGVYTRVSQYIEWLQKLMRSEPRPGVLLRAPFPDIGGGGSGGGGSGGGGSGGGGSGGGGSGGGGSAQVQLQESGGGLVQPGGSLRLSCAASGFMFSRYAMSWVRQAPGKGPEWVSGISGSGGSTYYADSVKGRFTVSRDNSKNTLYLQMNSLRAEDTAVYYCARGATYTSRSDVPDQTSFDYWGQGTLVTVSSGSASAPKLEEGEFSEARVSELTQDPAVSVALGQTVRITCQGDSLRNFYASWYQQKPGQAPTLVIYGLSKRPSGIPDRFSASSSGNTASLTITGAQAEDEADYYCLLYYGGGQQGVFGGGTKLTVLRQPKAAPSVTLFPPSSAA
notes: SCE5 at the C-terminus of FVIIa; no Fc; also called pSYN-FVII-094
B1: binds.
